Experimental data as given in article PMC9482650, “Quantitative fragmentomics allow affinity mapping of interactomes” (Nature Communications, 2022).

T1: GRIP1_5, Q9Y3R0
T1 sequence (Q9Y3R0 568-668, limits assumed, looked up): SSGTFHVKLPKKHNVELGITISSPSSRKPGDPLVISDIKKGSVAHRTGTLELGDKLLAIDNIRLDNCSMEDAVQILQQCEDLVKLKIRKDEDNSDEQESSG

T2: SYNJ2BP, P57105
T2 sequence (P57105 8-110, limits assumed, looked up): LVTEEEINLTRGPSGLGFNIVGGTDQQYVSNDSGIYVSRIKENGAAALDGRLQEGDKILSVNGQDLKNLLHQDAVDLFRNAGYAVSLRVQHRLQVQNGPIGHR

T3: GRIP1_3, Q9Y3R0
T3 sequence (Q9Y3R0 247-346, limits assumed, looked up): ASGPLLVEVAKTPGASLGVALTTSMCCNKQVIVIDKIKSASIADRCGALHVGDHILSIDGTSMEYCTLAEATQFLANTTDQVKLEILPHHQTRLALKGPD

T4: APBA1_1, Q02410
T4 sequence (Q02410 651-752, limits assumed, looked up): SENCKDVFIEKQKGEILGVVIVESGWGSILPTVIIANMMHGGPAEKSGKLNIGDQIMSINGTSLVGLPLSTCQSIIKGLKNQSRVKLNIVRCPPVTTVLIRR

T5: APBA2_1, Q99767
T5 sequence (Q99767 563-664, limits assumed, looked up): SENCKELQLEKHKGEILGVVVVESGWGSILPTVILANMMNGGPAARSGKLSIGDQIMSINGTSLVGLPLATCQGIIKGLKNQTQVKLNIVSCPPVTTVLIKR

T6: GRIP1_7, Q9Y3R0
T6 sequence (Q9Y3R0 999-1096, limits assumed, looked up): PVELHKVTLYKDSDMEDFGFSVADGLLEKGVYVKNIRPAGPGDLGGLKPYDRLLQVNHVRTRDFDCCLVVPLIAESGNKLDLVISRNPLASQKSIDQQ

T7: GRIP1_2, Q9Y3R0
T7 sequence (Q9Y3R0 145-248, limits assumed, looked up): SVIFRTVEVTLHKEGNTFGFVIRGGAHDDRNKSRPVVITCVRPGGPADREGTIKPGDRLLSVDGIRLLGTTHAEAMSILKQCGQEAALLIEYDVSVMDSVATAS

T8: MPP7, Q5T2T1
T8 sequence (Q5T2T1 134-230, limits assumed, looked up): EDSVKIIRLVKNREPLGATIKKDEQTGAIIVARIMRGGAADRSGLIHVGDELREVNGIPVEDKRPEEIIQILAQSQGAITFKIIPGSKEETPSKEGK

T9: TJP3_3, O95049
T9 sequence (O95049 375-456, limits assumed, looked up): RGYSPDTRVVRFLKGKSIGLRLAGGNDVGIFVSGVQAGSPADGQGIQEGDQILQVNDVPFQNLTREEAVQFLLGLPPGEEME


Experiments:
Test in all cases: holdup assay
Parameters in all cases: key: below the threshold = too weak to quantify, mostly under pKd 3.1 to 4
Conditions in all cases: plain residues with an end cap or a label only (N-terminal biotin on a linker: ado-ado)
[1] = biological target: MAGI2_4, Q86UL8
[2] = biological target: TJP2_1, Q9UDY2
[3] = biological target: T1, GRIP1_5, Q9Y3R0
[4] = biological target: PDZRN4_1, Q6ZMN7
[5] = biological target: T2, SYNJ2BP, P57105
[6] = biological target: SCRIB_1, Q14160
[7] = biological target: GRIP2_6, Q9C0E4
[8] = biological target: Inadl_2, Q8NI35
[9] = biological target: CASK, O14936
[10] = biological target: T3, GRIP1_3, Q9Y3R0
[11] = biological target: T4, APBA1_1, Q02410
[12] = biological target: SNX27, Q96L92
[13] = biological target: T5, APBA2_1, Q99767
[14] = biological target: GRID2IP_1, A4D2P6
[15] = biological target: DLG5_1, Q8TDM6
[16] = biological target: T6, GRIP1_7, Q9Y3R0
[17] = biological target: GRIP2_5, Q9C0E4
[18] = biological target: T7, GRIP1_2, Q9Y3R0
[19] = biological target: T8, MPP7, Q5T2T1
[20] = biological target: HTRA2, O43464
[21] = biological target: LAP2, Q96RT1
[22] = biological target: T9, TJP3_3, O95049
[23] = biological target: SCRIB_2, Q14160
[24] = biological target: GORASP2, Q9H8Y8
[25] = biological target: GRIP2_4, Q9C0E4
[26] = biological target: GRIP2_7, Q9C0E4
[27] = biological target: MAGI2_2, Q86UL8
[28] = biological target: FRMPD4, Q14CM0
Chain of FRMPD4, Q14CM0 (Q14CM0 67-160): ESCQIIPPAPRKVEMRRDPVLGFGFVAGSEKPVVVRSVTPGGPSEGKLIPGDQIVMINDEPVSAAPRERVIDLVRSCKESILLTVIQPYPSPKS

Chain of MAGI2_4, Q86UL8 (Q86UL8 772-865): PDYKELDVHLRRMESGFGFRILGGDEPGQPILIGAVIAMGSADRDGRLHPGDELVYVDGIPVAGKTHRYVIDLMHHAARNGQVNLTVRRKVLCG
Chain of SCRIB_2, Q14160 (Q14160 857-960): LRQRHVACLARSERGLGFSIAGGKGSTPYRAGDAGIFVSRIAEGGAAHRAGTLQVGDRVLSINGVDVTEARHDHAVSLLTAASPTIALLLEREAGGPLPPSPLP
Chain of GRIP2_4, Q9C0E4 (Q9C0E4 446-548): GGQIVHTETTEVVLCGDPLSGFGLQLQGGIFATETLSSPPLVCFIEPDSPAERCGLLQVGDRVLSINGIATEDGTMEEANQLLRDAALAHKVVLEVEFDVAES
Chain of PDZRN4_1, Q6ZMN7 (Q6ZMN7 213-318): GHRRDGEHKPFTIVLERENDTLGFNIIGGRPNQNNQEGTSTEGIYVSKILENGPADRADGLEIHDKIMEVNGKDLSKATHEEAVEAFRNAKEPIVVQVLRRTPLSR
Chain of LAP2, Q96RT1 (Q96RT1 other isoform, or with tags, fused parts or gaps): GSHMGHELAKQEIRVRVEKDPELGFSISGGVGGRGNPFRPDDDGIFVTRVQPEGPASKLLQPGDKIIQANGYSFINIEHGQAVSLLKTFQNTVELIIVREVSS
Chain of GRIP2_7, Q9C0E4 (Q9C0E4 934-1023): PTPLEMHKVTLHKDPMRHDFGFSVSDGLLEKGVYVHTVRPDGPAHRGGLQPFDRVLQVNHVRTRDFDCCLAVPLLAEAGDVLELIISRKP
Chain of Inadl_2, Q8NI35 (Q8NI35 238-335): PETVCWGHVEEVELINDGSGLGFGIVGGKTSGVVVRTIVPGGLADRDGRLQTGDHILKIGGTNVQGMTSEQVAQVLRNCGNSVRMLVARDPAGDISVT
Chain of HTRA2, O43464 (O43464 355-458): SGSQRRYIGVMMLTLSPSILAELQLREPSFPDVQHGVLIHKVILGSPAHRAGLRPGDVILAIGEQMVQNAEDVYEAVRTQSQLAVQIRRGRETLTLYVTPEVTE
Chain of DLG5_1, Q8TDM6 (Q8TDM6 617-713): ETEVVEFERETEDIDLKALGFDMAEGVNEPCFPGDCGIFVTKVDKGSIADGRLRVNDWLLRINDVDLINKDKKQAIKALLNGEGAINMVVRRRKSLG
Chain of GRIP2_6, Q9C0E4 (Q9C0E4 648-740): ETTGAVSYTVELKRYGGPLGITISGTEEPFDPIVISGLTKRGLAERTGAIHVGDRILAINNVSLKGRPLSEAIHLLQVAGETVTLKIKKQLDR
Chain of GRIP2_5, Q9C0E4 (Q9C0E4 544-642): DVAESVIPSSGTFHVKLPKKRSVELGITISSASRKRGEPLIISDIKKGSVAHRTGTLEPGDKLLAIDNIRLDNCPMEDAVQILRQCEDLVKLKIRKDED
Chain of SCRIB_1, Q14160 (Q14160 718-814): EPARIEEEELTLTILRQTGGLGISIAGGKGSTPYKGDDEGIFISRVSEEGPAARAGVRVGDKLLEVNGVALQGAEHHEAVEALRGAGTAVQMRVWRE
Chain of MAGI2_2, Q86UL8 (Q86UL8 410-522): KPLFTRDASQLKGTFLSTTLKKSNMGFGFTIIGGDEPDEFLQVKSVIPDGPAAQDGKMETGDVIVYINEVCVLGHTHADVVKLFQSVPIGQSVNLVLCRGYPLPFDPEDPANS
Chain of CASK, O14936 (O14936 487-570): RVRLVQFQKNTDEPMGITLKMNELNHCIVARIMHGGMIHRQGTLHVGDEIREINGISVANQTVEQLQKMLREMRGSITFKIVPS
Chain of TJP2_1, Q9UDY2 (Q9UDY2 24-128): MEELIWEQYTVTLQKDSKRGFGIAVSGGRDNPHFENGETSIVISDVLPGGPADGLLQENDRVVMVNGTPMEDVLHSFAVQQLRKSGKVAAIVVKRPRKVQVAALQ
Chain of GRID2IP_1, A4D2P6 (A4D2P6 1-87): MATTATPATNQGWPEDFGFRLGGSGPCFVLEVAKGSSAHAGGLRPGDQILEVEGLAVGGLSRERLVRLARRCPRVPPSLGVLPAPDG

| Binder | pKd [1] | pKd [2] | pKd [3] | pKd [4] | pKd [5] | pKd [6] | pKd [7] | pKd [8] | pKd [9] | pKd [10] | pKd [11] | pKd [12] | pKd [13] | pKd [14] | pKd [15] | pKd [16] | pKd [17] | pKd [18] | pKd [19] | pKd [20] | other results |
| --- | --- | --- | --- | --- | --- | --- | --- | --- | --- | --- | --- | --- | --- | --- | --- | --- | --- | --- | --- | --- | --- |
| DFKHTKSFII [JAM2, P57087] | below the threshold | below the threshold | below the threshold | below the threshold | below the threshold | below the threshold | 4.41 | below the threshold | below the threshold | below the threshold | below the threshold | below the threshold | below the threshold | below the threshold | below the threshold | below the threshold | below the threshold | below the threshold | 3.75 | 3.88 | pKd [21]: below the threshold; pKd [22]: below the threshold; pKd [23]: below the threshold; pKd [24]: 5.6; pKd [25]: below the threshold; pKd [26]: 3.88; pKd [27]: below the threshold; pKd [28]: below the threshold |
| SQPLLVHDDV [KIT, P10721] | below the threshold | below the threshold | below the threshold | below the threshold | below the threshold | below the threshold | below the threshold | below the threshold | below the threshold | below the threshold | below the threshold | below the threshold | below the threshold | below the threshold | below the threshold | below the threshold | below the threshold | below the threshold | below the threshold | below the threshold | pKd [21]: 3.56; pKd [22]: below the threshold; pKd [23]: below the threshold; pKd [24]: below the threshold; pKd [25]: below the threshold; pKd [26]: below the threshold; pKd [27]: below the threshold; pKd [28]: below the threshold |
| EFKQTSSFLV [JAM1, Q9Y624] | 4.3 | below the threshold | below the threshold | below the threshold | below the threshold | below the threshold | 4.35 | 3.56 | below the threshold | below the threshold | below the threshold | below the threshold | below the threshold | below the threshold | below the threshold | below the threshold | below the threshold | below the threshold | 3.74 | 3.78 | pKd [21]: below the threshold; pKd [22]: below the threshold; pKd [23]: below the threshold; pKd [24]: 4.83; pKd [25]: below the threshold; pKd [26]: 3.86; pKd [27]: 3.72; pKd [28]: 3.76 |
| PKSNSSKEYV [CLDN7, O95471] | below the threshold | 4.28 | below the threshold | below the threshold | below the threshold | below the threshold | below the threshold | below the threshold | below the threshold | below the threshold | below the threshold | below the threshold | below the threshold | below the threshold | below the threshold | below the threshold | below the threshold | below the threshold | below the threshold | below the threshold | pKd [21]: below the threshold; pKd [22]: below the threshold; pKd [23]: below the threshold; pKd [24]: 3.6; pKd [25]: below the threshold; pKd [26]: below the threshold; pKd [27]: below the threshold; pKd [28]: below the threshold |
